The record followed here is article PMC3514405.

The series deals with BLV nucleocapsid protein (NC) (Bovine leukemia virus, UniProt P03344). Kind of series: ITC.
Sequence of BLV nucleocapsid protein (NC) (P03344 324-392, tags left off): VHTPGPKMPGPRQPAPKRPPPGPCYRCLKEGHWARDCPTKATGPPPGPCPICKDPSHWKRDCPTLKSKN

A word on the Kd: it is the concentration at which binding is half-saturated. Read a low Kd as tighter binding. CAACUCUCUG (ssRNA) [SLV-VI linker (10 nt)]: the Kd is 92 ± 16 nM.
